# B1: AatA (Rhizobium leguminosarum bv. phaseoli) (protein)
# chain: MAFLADALSRVKPSATIAVSQKARELKAKGRDVIGLGAGEPDFDTPDNIKKAAIDAINRGETKYTPVSGIPELRKAIAAKFKRENGLDYSWEQTIVGTGGKQILFNAFMATLNPGDEVSIPAPYWVSYPEMVALCGGTRFFVSATQEHNFKLQAADLEKAITPKTKWFIFNSPSNPTGAAYTHDELKALTDVLMKNPQVWVLTDDMYEHLTYGDFKFVTPVEVEPQLYDRTLTMNGVSKAYAMTGWRIGYAAGPIQLIKAMDMIQGQQTSGATSIAQWAAVEALNGTQDFIPENKKIFEGRRDLVVSMLNQAKGIVCPVPEGAFYVYPSCKGLIGKTAPSGKVIETDEDFVSELLESEGVAVVHGSAFGLGPNFRISYATSEEQLEEACRRIQRFCGACK
# notes: recombinant from A34 gDNA in pET101/D-TOPO (pRU1152; vector with V5-tag and 6xHis), E. coli BL21 Star (DE3), His-Trap purified (histidine elution); expected homodimer; glycine at position 266
# Assays:
# Assay in all cases: purified protein
# purified protein [1] = substrate: N[C@@H](CC(=O)O)C(=O)O; settings: AKT reaction, co-substrate α-ketoglutarate, 0.05 mM PLP, 100 mM phosphate pH 7.5, 30 °C
# purified protein [2] = substrate: O=C(O)CC(=O)C(=O)O; settings: GOT reaction, co-substrate glutamate, 0.05 mM PLP, 100 mM NH4Cl, 100 mM phosphate pH 7.5, 30 °C
# purified protein [3] = substrate: CC(=O)C(=O)O; assay type: biochemical, Rhizobium leguminosarum; settings: APT reaction, co-substrate aspartate, 0.05 mM PLP, 100 mM phosphate pH 7.5, 30 °C
# purified protein [4] = substrate: N[C@@H](CCC(=O)O)C(=O)O; assay type: biochemical, Rhizobium leguminosarum; settings: GOT reaction, co-substrate oxaloacetate, 0.05 mM PLP, 100 mM NH4Cl, 100 mM phosphate pH 7.5, 30 °C
# purified protein [5] = substrate: O=C(O)CCC(=O)C(=O)O; assay type: biochemical, Rhizobium leguminosarum; settings: AKT reaction, co-substrate aspartate, 0.05 mM PLP, 100 mM phosphate pH 7.5, 30 °C
protein,measurement,setting,value
B1,Km,purified protein [1],1740 ± 320 µM
same,kcat,purified protein [1],125.88 ± 5.09 s⁻¹
same,Km,purified protein [2],180 ± 30 µM
same,kcat,purified protein [2],168.08 ± 6.55 s⁻¹
same,Km,purified protein [3],17000 ± 2000 µM
same,kcat,purified protein [3],98.96 ± 4.37 s⁻¹
same,Km,purified protein [4],4430 ± 520 µM
same,kcat,purified protein [4],163.71 ± 3.64 s⁻¹
same,Km,purified protein [5],320 ± 20 µM
same,kcat,purified protein [5],130.97 ± 2.18 s⁻¹

# Source: article PMC11286295, “Aspartate aminotransferase of Rhizobium leguminosarum has extended substrate specificity and metabolizes aspartate to enable N2 fixation in pea nodules” (Microbiology, 2024)
